Test results reported in paper PMC11783452 (iScience, 2024).

Biological target: prefusion-stabilized MERS-CoV spike protein, MERS S-2P (MERS-CoV, England1 (isolate United …, UniProt K9N5Q8, stabilised))
Test: negative-stain EM

B1: Anti-MERS-CoV S antibody CDC2-A2, Fab (Fab, V domains shown)
VH: QVQLVESGGGLVKPGGSLRLSCAASGFTFSDYYMSWIRQAPGKGLEWVSYISSSGSTIYYADSVKGRFTISRDNAKNSLYLQMNSLRAEDTAVYYCARVGLGSGWYDWFDPWGQGTLVTVSS
VL: QSALTQPPSVSGAPGQRVTISCTGSSSNIGASYDVHWYQHLPGTAPKLLIYGNTNRPSGVPDRFSGSKSGTSASLAITGLQAEDEADYYCQSYDSSLSGVVFSGGTKLTVL
binding result: binds
